# In the supplement of paper PMC12783771:
# ± gives the standard deviation of the averaged measurements.
# B1: library; a variant is named by its letters at X, in order (parent)
# chain: MNIQIGELAKRTACPVVTIRFYEQEGLLPPPGRSRGNFRLYGEEHVERLQFIRHCRSLDMPLSXVRTLLSYRKRPDQDCGEVXMLLDEHXRQVESRIGALLELXHXLVELREACSGARPAQSCGILQGLSDCVCDTRGTTAHXSD
# Key:
# [1] = variants of: B1; assay: sfGFP reporter fluorescence (15 h) (µM FITC); higher = higher leak; settings: library round: Round 3b; ligand: none
# Protocol: (§1)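 Cell-free biosensing: 1 µL Echo-assembled CFE reactions with linear PbrR variant templates (5 nM) and pPbrR-sfGFP reporter, with 1 µM Pb, 30 µM Zn or no ligand; endpoint sfGFP fluorescence after 15 h at 30 °C calibrated as µM FITC. Round 3b rational combinatorial PbrR mutants; 3 biological replicates.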
# [2] = variants of: B1; assay: sfGFP reporter fluorescence (15 h) (µM FITC); higher = stronger transcriptional activation; settings: library round: Round 3b
# Protocol: as §1
Variant,sfGFP reporter fluorescence [1],sfGFP reporter fluorescence ([2]; ligand: 1 µM Pb),sfGFP reporter fluorescence ([2]; ligand: 30 µM Zn)
KNIVAT,0.092 ± 0.0023,0.52 ± 0.048,1.42 ± 0.2
DFAVAT,0.0442 ± 0.0011,0.0558 ± 0.0015,0.0449 ± 0.0022
DFAVAP,0.0435 ± 0.0045,0.0535 ± 0.0046,0.0484 ± 0.0012
DFAVAR,0.0466 ± 0.0033,0.0575 ± 0.0018,0.0492 ± 0.0035
KNAVAP,0.0482 ± 0.0035,0.142 ± 0.0073,0.214 ± 0.025
KNAVAR,0.0498 ± 0.001,0.195 ± 0.018,0.309 ± 0.028
KNAVAT,0.045 ± 0.0035,0.155 ± 0.0086,0.237 ± 0.018
KFIKAT,0.0418 ± 0.0013,0.169 ± 0.015,0.0513 ± 0.0024
KIATHR,0.0655 ± 0.0015,1.19 ± 0.2,0.0963 ± 0.013
KIATHP,0.07594 ± 0.00067,1.34 ± 0.049,0.0972 ± 0.014
KIATHT,0.0743 ± 0.0012,1.3 ± 0.031,0.112 ± 0.0078
KNATAR,0.0517 ± 0.005,0.302 ± 0.012,0.406 ± 0.066
KNATAP,0.052 ± 0.0055,0.226 ± 0.015,0.311 ± 0.038
KNATAT,0.0532 ± 0.0029,0.305 ± 0.021,0.514 ± 0.057
KFIVHT,0.0536 ± 0.0065,0.7 ± 0.038,0.365 ± 0.038
KIAKHR,0.072 ± 0.002,1.07 ± 0.074,0.135 ± 0.017
KIAKHT,0.0693 ± 0.0034,0.93 ± 0.043,0.152 ± 0.011
KNAVHR,0.0557 ± 0.0039,0.37 ± 0.021,0.644 ± 0.054
KNAVHT,0.0573 ± 0.0042,0.322 ± 0.0077,0.602 ± 0.057
KFATER,0.0457 ± 0.0041,0.594 ± 0.024,0.0571 ± 0.014
KFATEP,0.0465 ± 0.0032,0.442 ± 0.0057,0.0564 ± 0.0029
KFATET,0.0469 ± 0.0028,0.404 ± 0.017,0.0606 ± 0.0013
DFITAT,0.0436 ± 0.0017,0.0559 ± 0.004,0.0439 ± 0.00085

Variant,sfGFP reporter fluorescence [1],sfGFP reporter fluorescence ([2]; ligand: 1 µM Pb),sfGFP reporter fluorescence ([2]; ligand: 30 µM Zn)
DFITAR,0.0422 ± 0.0057,0.0635 ± 0.0015,0.0455 ± 0.0024
KFAVHP,0.0477 ± 0.002,0.656 ± 0.07,0.198 ± 0.014
KFAVHT,0.0459 ± 0.0029,0.632 ± 0.071,0.179 ± 0.029
KFAVHR,0.0469 ± 0.0029,0.631 ± 0.038,0.171 ± 0.017
KFITEP,0.0482 ± 0.0055,0.36 ± 0.014,0.0694 ± 0.0043
KFITET,0.0451 ± 0.0028,0.3727 ± 0.0019,0.0737 ± 0.0037
KFITER,0.0486 ± 0.00051,0.435 ± 0.016,0.0763 ± 0.005
DIATHT,0.0414 ± 0.0019,0.103 ± 0.0068,0.0451 ± 0.0014
DIATHR,0.0464 ± 0.003,0.0989 ± 0.0066,0.0456 ± 0.0036
KFITHR,0.0496 ± 0.0019,0.554 ± 0.021,0.25 ± 0.036
KFITHT,0.0512 ± 0.0076,0.492 ± 0.046,0.21 ± 0.024
KFAKAT,0.0569 ± 0.0013,0.564 ± 0.039,0.0878 ± 0.0047
KFAKAR,0.0579 ± 0.0044,0.663 ± 0.0095,0.0902 ± 0.0064
KFAKAP,0.0577 ± 0.0042,0.495 ± 0.031,0.073 ± 0.0081
DIAVAT,0.0441 ± 0.0047,0.096 ± 0.0083,0.0457 ± 0.0025
DIAVAP,0.0451 ± 0.0067,0.0922 ± 0.0043,0.0441 ± 0.0071
DIAVAR,0.0429 ± 0.0036,0.102 ± 0.0042,0.047 ± 0.0015
KFITAT,0.0473 ± 0.0032,0.335 ± 0.012,0.0678 ± 0.0076
KFITAP,0.0485 ± 0.0052,0.302 ± 0.022,0.0642 ± 0.0032
KFITAR,0.0479 ± 0.003,0.394 ± 0.028,0.0776 ± 0.0024
DIAKER,0.0433 ± 0.0047,0.0512 ± 0.0021,0.0452 ± 0.0035
DIAKET,0.0419 ± 0.00078,0.0472 ± 0.0015,0.0466 ± 0.0026
DIITAT,0.0431 ± 0.0041,0.0634 ± 0.005,0.0426 ± 0.0034

Variant,sfGFP reporter fluorescence [1],sfGFP reporter fluorescence ([2]; ligand: 1 µM Pb),sfGFP reporter fluorescence ([2]; ligand: 30 µM Zn)
DIITAR,0.0463 ± 0.0055,0.0691 ± 0.0046,0.0465 ± 0.0022
KNAVEP,0.0529 ± 0.0031,0.235 ± 0.021,0.211 ± 0.024
KNAVET,0.0522 ± 0.0014,0.261 ± 0.01,0.223 ± 0.016
KNAVER,0.0532 ± 0.0015,0.334 ± 0.025,0.313 ± 0.04
KIAVET,0.0672 ± 0.0059,1.21 ± 0.013,0.0607 ± 0.0027
KIAVER,0.0626 ± 0.0036,0.946 ± 0.087,0.0548 ± 0.002
KIAVEP,0.0654 ± 0.0022,0.997 ± 0.055,0.0578 ± 0.0022
DFATER,0.044 ± 0.0013,0.0474 ± 0.0018,0.0469 ± 0.0034
DFATEP,0.041 ± 0.0024,0.0428 ± 0.0007,0.0444 ± 0.0036
DFATET,0.0435 ± 0.0019,0.0466 ± 0.0012,0.0451 ± 0.001
KIIKET,0.0423 ± 0.0019,0.128 ± 0.0066,0.0466 ± 0.001
KIIKER,0.0441 ± 0.0037,0.149 ± 0.017,0.0485 ± 0.0035
KIATET,0.0659 ± 0.0015,1.15 ± 0.065,0.0663 ± 0.0026
KIATER,0.06373 ± 0.00019,1.25 ± 0.078,0.0603 ± 0.0035
KIATEP,0.0672 ± 0.0044,1 ± 0.062,0.0643 ± 0.0007
KIAVAR,0.0586 ± 0.0045,1.08 ± 0.06,0.0523 ± 0.0046
KIAVAT,0.0607 ± 0.0022,1.25 ± 0.024,0.0576 ± 0.0032
KIAVAP,0.0556 ± 0.001,0.772 ± 0.15,0.0487 ± 0.0065
DNAVET,0.0438 ± 0.0014,0.0536 ± 0.0031,0.0603 ± 0.0036
DNAVER,0.0468 ± 0.0035,0.0511 ± 0.0015,0.062 ± 0.0046
DNIKHP,0.043 ± 0.0052,0.0535 ± 0.0032,0.281 ± 0.018
DFAVET,0.0447 ± 0.00067,0.051 ± 0.0039,0.0469 ± 0.00097
DFAVER,0.0402 ± 0.0024,0.0506 ± 0.0017,0.0474 ± 0.0015

Variant,sfGFP reporter fluorescence [1],sfGFP reporter fluorescence ([2]; ligand: 1 µM Pb),sfGFP reporter fluorescence ([2]; ligand: 30 µM Zn)
DFAVEP,0.0418 ± 0.0019,0.0531 ± 0.0031,0.0466 ± 0.0044
KIAKET,0.0531 ± 0.0032,0.4674 ± 0.0044,0.057 ± 0.0063
KIAKER,0.0554 ± 0.0012,0.614 ± 0.024,0.0592 ± 0.0041
KIAKEP,0.052 ± 0.0034,0.387 ± 0.02,0.051 ± 0.0007
KIITET,0.0468 ± 0.0019,0.265 ± 0.01,0.0513 ± 0.0034
KIITEP,0.0456 ± 0.0027,0.301 ± 0.011,0.0508 ± 0.0019
KIITER,0.0454 ± 0.0026,0.266 ± 0.0032,0.0497 ± 0.0018
DFITER,0.0424 ± 0.0031,0.0522 ± 0.0026,0.0451 ± 0.0034
DFITET,0.0393 ± 0.0042,0.0493 ± 0.0022,0.0433 ± 0.0032
KFAKHR,0.0685 ± 0.0035,0.843 ± 0.073,0.33 ± 0.014
KFAKHT,0.0669 ± 0.0082,0.777 ± 0.035,0.299 ± 0.047
DIATER,0.0429 ± 0.0012,0.0627 ± 0.0026,0.0413 ± 0.00067
DIATEP,0.046 ± 0.0012,0.0616 ± 0.0042,0.0456 ± 0.0029
DIATET,0.0419 ± 0.0022,0.0628 ± 0.00089,0.0452 ± 0.0012
DFATAP,0.0454 ± 0.0046,0.048 ± 0.0038,0.0454 ± 0.0051
DFATAR,0.0431 ± 0.00051,0.05286 ± 0.00019,0.0448 ± 0.0015
DFATAT,0.0428 ± 0.0034,0.0475 ± 0.0011,0.0455 ± 0.0051
KFATHT,0.0512 ± 0.0033,0.558 ± 0.011,0.137 ± 0.013
KFATHR,0.0517 ± 0.0024,0.705 ± 0.055,0.171 ± 0.012
KFATHP,0.0523 ± 0.0059,0.476 ± 0.041,0.112 ± 0.011
